The source of these data is paper PMC9253114, “Structures and gating mechanisms of human bestrophin anion channels” (Nature Communications, 2022).

Series [1] deals with the molecule itself. Briefly: cryo-EM structure; single-particle cryo-EM of purified truncated channel (residues 1-345) in GDN, in the presence of 5 mM Ca2+; C5 symmetry refinement.
Series [2] deals with the molecule itself. The experiment in a line: cryo-EM structure; single-particle cryo-EM of purified channel in GDN (200 mM NaCl, 40 mM HEPES pH 7.8, 0.005% GDN); without Ca2+ (EGTA) or after a 30 s spike of 1 uM or 5 mM Ca2+; C5 symmetry refinement.

B1: hBest1_(1–345) (domain or fragment, human, UniProt O76090 1-345, looked up)
chain: MTITYTSQVANARLGSFSRLLLCWRGSIYKLLYGEFLIFLLCYYIIRFIYRLALTEEQQLMFEKLTLYCDSYIQLIPISFVLGFYVTLVVTRWWNQYENLPWPDRLMSLVSGFVEGKDEQGRLLRRTLIRYANLGNVLILRSVSTAVYKRFPSAQHLVQAGFMTPAEHKQLEKLSLPHNMFWVPWVWFANLSMKAWLGGRIRDPILLQSLLNEMNTLRTQCGHLYAYDWISIPLVYTQVVTVAVYSFFLTCLVGRQFLNPAKAYPGHELDLVVPVFTFLQFFFYVGWLKVAEQLINPFGEDDDDFETNWIVDRNLQVSLLAVDEMHQDLPRMEPDMYWNKPEPQP
notes: also called hBEST1 345; AS truncated hBest1; source: HEK293-F cells, Bacmam system, purified (GDN extraction, Ni-NTA, TEV cleavage, gel filtration)
Regarding B1, the binding result in series [1] is recorded as “binds”.

B2: bBest2_(1–345) (domain or fragment, bovine, UniProt E1BF86 1-345, looked up)
chain: MTVTYTARVAKARFGGFSKLLLLWRGSIYKLLWRELLCFLGLFMALSAAYRFVLTEEQKRYFEKLVLYCDRYASLIPVSFVLGFYVTLVVHRWWNQYLSMPLTDALMCVVVGTVHGHDERGRLYRRTLMRYAGLSGVLILRSVSTAVFKRFPTIDHVVEAGFMTREERKKFENLNSSYNKYWVPCVWFCNLAAQARREGRIRDNGAFKLLLEELNVFRSKCGMLFHYDWISVPLVYTQVVTIAVYSYFLACLIGRQFLDPAQGYKDHDLDLCVPIFTLLQFFFYAGWLKVAEQLINPFGEDDDDFETNFLIDRCFQVSMLAVDEMYDDLAMLEKDLYWDAAEARA
notes: PDB 6VX7 is the cited earlier bBest2 structure, another construct; also called bBEST2 345; AS truncated bovine Best2; source: HEK293-F cells, Bacmam system, purified (GDN extraction, Ni-NTA, TEV cleavage, gel filtration)
Regarding B2, the binding result in series [1] was “binds”.

B3: wild-type human bestrophin-1 (natural protein)
chain: MTITYTSQVANARLGSFSRLLLCWRGSIYKLLYGEFLIFLLCYYIIRFIYRLALTEEQQLMFEKLTLYCDSYIQLIPISFVLGFYVTLVVTRWWNQYENLPWPDRLMSLVSGFVEGKDEQGRLLRRTLIRYANLGNVLILRSVSTAVYKRFPSAQHLVQAGFMTPAEHKQLEKLSLPHNMFWVPWVWFANLSMKAWLGGRIRDPILLQSLLNEMNTLRTQCGHLYAYDWISIPLVYTQVVTVAVYSFFLTCLVGRQFLNPAKAYPGHELDLVVPVFTFLQFFFYVGWLKVAEQLINPFGEDDDDFETNWIVDRNLQVSLLAVDEMHQDLPRMEPDMYWNKPEPQPPYTAASAQFRRASFMGSTFNISLNKEEMEFQPNQEDEEDAHAGIIGRFLGLQSHDHHPPRANSRTKLLWPKRESLLHEGLPKNHKAAKQNVRGQEDNKAWKLKAVDAFKSAPLYQRPGYYSAPQTPLSPTPMFFPLEPSAPSKLHSVTGIDTKDKSLKTVSSGAKKSFELLSESDGALMEHPEVSQVRRKTVEFNLTDMPEIPENHLKEPLEQSPTNIHTTLKDHMDPYWALENRDEAHS
notes: human bestrophin-1 (hBest1), wild type; also called hBest1; WT hBest1; source: HEK293-F cells, Bacmam system, purified (GDN extraction, Ni-NTA, TEV cleavage, gel filtration)
Usually stoichiometry N stands for the number of molecules, sites or subunits per partner or assembly. Regarding B3, in series [2], the “stoichiometry N” value was 5.

B4: wild-type human bestrophin-2 (natural protein, UniProt Q8NFU1 1-509, looked up)
chain: MTVTYTARVANARFGGFSQLLLLWRGSIYKLLWRELLCFLGFYMALSAAYRFVLTEGQKRYFEKLVIYCDQYASLIPVSFVLGFYVTLVVNRWWSQYLCMPLPDALMCVVAGTVHGRDDRGRLYRRTLMRYAGLSAVLILRSVSTAVFKRFPTIDHVVEAGFMTREERKKFENLNSSYNKYWVPCVWFSNLAAQARREGRIRDNSALKLLLEELNVFRGKCGMLFHYDWISVPLVYTQVVTIALYSYFLACLIGRQFLDPAQGYKDHDLDLCVPIFTLLQFFFYAGWLKVAEQLINPFGEDDDDFETNFLIDRNFQVSMLAVDEMYDDLAVLEKDLYWDAAEARAPYTAATVFQLRQPSFQGSTFDITLAKEDMQFQRLDGLDGPMGEAPGDFLQRLLPAGAGMVAGGPLGRRLSFLLRKNSCVSEASTGASCSCAVVPEGAAPECSCGDPLLDPGLPEPEAPPPAGPEPLTLIPGPVEPFSIVTMPGPRGPAPPWLPSPIGEEEENLA
notes: human bestrophin-2 (hBest2), wild type; also called hBest2; WT hBest2; source: HEK293-F cells, Bacmam system, purified (GDN extraction, Ni-NTA, TEV cleavage, gel filtration)
In the case of B4, in series [2], the “stoichiometry N” value is 5.
